Publication PMC8791618

Key:
[1] = target: Haliangium ochraceum encapsulin (Haliangium ochraceum) (UniProt D0LZ74); experiment: HDX-MS; Empty-Enc against Loaded-Enc nanocompartments; labelling in phosphate buffer in D2O pH 8.0 at 4 C, up to 24 hours; pepsin digestion
[2] = target: Haliangium ochraceum encapsulated ferritin (Haliangium ochraceum) (UniProt D0LZ73); experiment: SDS-PAGE; purified Loaded-Enc on 15% acrylamide SDS-PAGE, Coomassie blue stain
[3] = target: Haliangium ochraceum encapsulated ferritin (Haliangium ochraceum) (UniProt D0LZ73); experiment: LC-MS; purified Loaded-Enc at ~2 uM on a reverse-phase C4 column, water/acetonitrile with 0.1% formic acid; deconvoluted masses
[4] = target: Haliangium ochraceum encapsulin (Haliangium ochraceum) (UniProt D0LZ74); experiment: cryo-EM structure; Loaded-Enc; asymmetric (C1) reconstruction without imposed symmetry, 3.7 A; local refinement of a single EncFtn density in CryoSPARC with PDB 5N5F docked; conditions: scale: EncFtn decamers per encapsulin nanocompartment
[5] = target: Haliangium ochraceum encapsulated ferritin (Haliangium ochraceum) (UniProt D0LZ73); experiment: as above
[6] = target: Haliangium ochraceum encapsulin (Haliangium ochraceum) (UniProt D0LZ74); experiment: cryo-EM structure; Loaded-Enc (3 mg/ml) vitrified; reconstruction with imposed I1 symmetry (2.5 A), then symmetry expansion and masked focused refinement of the fivefold pentamer (closed 2.2 A, open 2.4 A), Relion3.1

Substance	reduction in hydrogen/deuterium exchange of encapsulin peptide 21-37, Loaded-Enc against Empty-Enc [1]	stoichiometry N [2]	stoichiometry N [3]	stoichiometry N [4]	stoichiometry N [5]	stoichiometry N [6]
Haliangium ochraceum encapsulated ferritin (from UniProt D0LZ73 1-131) (enzyme)	12%	2	2	4	10	
Haliangium ochraceum encapsulin (from UniProt D0LZ74 1-266) (natural protein)						60
